Test results from patent EP4803150A2 (Lyvgen Biopharma Holdings Limited, dated 2026).
Positions count from the first letter of the chain named.

T1: CD19 (human, UniProt P15391 20-556)
T1 construct: whole, on cells
T1 sequence (looked up): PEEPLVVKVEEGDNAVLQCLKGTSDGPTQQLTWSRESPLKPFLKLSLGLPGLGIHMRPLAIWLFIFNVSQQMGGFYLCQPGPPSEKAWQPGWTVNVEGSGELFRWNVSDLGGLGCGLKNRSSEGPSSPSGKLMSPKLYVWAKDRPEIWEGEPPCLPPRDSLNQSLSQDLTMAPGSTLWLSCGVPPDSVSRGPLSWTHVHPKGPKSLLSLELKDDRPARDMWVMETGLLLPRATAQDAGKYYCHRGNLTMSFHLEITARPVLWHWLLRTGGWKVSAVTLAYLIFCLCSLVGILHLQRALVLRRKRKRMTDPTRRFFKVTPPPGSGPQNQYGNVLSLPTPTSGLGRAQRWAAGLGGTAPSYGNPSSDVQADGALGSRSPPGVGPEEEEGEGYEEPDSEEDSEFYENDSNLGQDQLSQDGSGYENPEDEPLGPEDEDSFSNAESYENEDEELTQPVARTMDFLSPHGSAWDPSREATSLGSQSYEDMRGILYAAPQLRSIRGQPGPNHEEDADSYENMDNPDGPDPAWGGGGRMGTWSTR

B1: Ly2943 (multi-specific antibody)
chain 1: QVQLQQPGAELVKPGASVKMSCKASGYTFTSYNMHWVKQTPGRGLEWIGAIYPGNGDTSYNQKFKGKATLTADKSSSTAYMQLSSLTSEDSAVYYCARSTYYGGDWYFNVWGAGTTVTVSAASVAAPSVFIFPPSDEQLKSGTASVVCLLNNFYPREAKVQWKVDNALQSGNSQESVTEQDSKDSTYSLSSTLTLSKADYEKHKVYACEVTHQGLSSPVTKSFNRGECGGGGSGGGGSGGGGSGGGGSEVQLVESGGGLVQPGGSLRLSCAASGFTFSTYAMNWVRQAPGKGLEWVGRIRSKYNNYATYYADSVKGRFTISRDDSKNSLYLQMNSLKTEDTAVYYCVRHGNFGNSYVSWFAYWGQGTLVTVSSGGGGSDKTHTCPPCPAPELLGPSVFLFPPKPKDTLMISRTPEVTCVVVDVSHEDPEVKFNWYVDGVEVHNAKTKPREEQYNSTYRVVSVLTVLHQDWLNGKEYKCKVSNKALGAPIEKTISKAKGQPREPQVYTLPPSREEMTKNQVSLWCLVKGFYPSDIAVEWESNGQPENNYKTTPPVLDSDGSFFLYSKLTVDKSRWQQGNVFSCSVMHEALHNHYTQKSLSLSPGKGGGGSGGGGSGGGGSGGGGSQVQLVQSGAEVKKPGASVKVSCKASGYTFAGFEMHWVRQAPGQGLEWMGAIDPKTGGTDYNQKFKDRVTMTRDTSISTAYMELSRLRSDDTAVYYCARDLGYFDVWGQGTLVTVSS
chain 2: QVQLQQSGAELVRPGSSVKISCKASGYAFSSYWMNWVKQRPGQGLEWIGQIWPGDGDTNYNGKFKGKATLTADESSSTAYMQLSSLASEDSAVYFCARRETTTVGRYYYAMDYWGQGTTVTVSSASTKGPSVFPLAPSSKSTSGGTAALGCLVKDYFPEPVTVSWNSGALTSGVHTFPAVLQSSGLYSLSSVVTVPSSSLGTQTYICNVNHKPSNTKVDKKVEPKSCGGGGSGGGGSGGGGSGGGGSQAVVTQEPSLTVSPGGTVTLTCRSSTGAVTTSNYANWVQQKPGQAPRGLIGGTNKRAPWTPARFSGSLLGGKAALTITGAQAEDEADYYCALWYSNLWVFGGGTKLTVLGGGGSDKTHTCPPCPAPELLGPSVFLFPPKPKDTLMISRTPEVTCVVVDVSHEDPEVKFNWYVDGVEVHNAKTKPREEQYNSTYRVVSVLTVLHQDWLNGKEYKCKVSNKALGAPIEKTISKAKGQPREPQVYTLPPSREEMTKNQVSLSCAVKGFYPSDIAVEWESNGQPENNYKTTPPVLDSDGSFFLVSKLTVDKSRWQQGNVFSCSVMHEALHNRFTQKSLSLSPGKGGGGSGGGGSGGGGSGGGGSDIQMTQSPSSLSASVGDRVTITCRASQDIRSNLNWYQQKPGGAVKLLIYYTSRLHSGVPSRFSGSGSGTDYTLTISSLQPEDFATYFCQQSEKLPRTFGGGTKVEIR
chain 3: QIVLSQSPAILSASPGEKVTMTCRASSSVSYIHWFQQKPGSSPKPWIYATSNLASGVPVRFSGSGSGTSYSLTISRVEAEDAATYYCQQWTSNPPTFGGGTKLEIKSSASTKGPSVFPLAPSSKSTSGGTAALGCLVKDYFPEPVTVSWNSGALTSGVHTFPAVLQSSGLYSLSSVVTVPSSSLGTQTYICNVNHKPSNTKVDKKVEPKSC
chain 4: not shown
notes: CD19/CD20/CD3/CD137
B2: Ly2802 (multi-specific antibody)
chain 1: QVQLQQSGAELVRPGSSVKISCKASGYAFSSYWMNWVKQRPGQGLEWIGQIWPGDGDTNYNGKFKGKATLTADESSSTAYMQLSSLASEDSAVYFCARRETTTVGRYYYAMDYWGQGTTVTVSSASVAAPSVFIFPPSDEQLKSGTASVVCLLNNFYPREAKVQWKVDNALQSGNSQESVTEQDSKDSTYSLSSTLTLSKADYEKHKVYACEVTHQGLSSPVTKSFNRGECGGGGSGGGGSGGGGSGGGGSEVQLVESGGGLVQPGGSLRLSCAASGFTFSTYAMNWVRQAPGKGLEWVGRIRSKYNNYATYYADSVKGRFTISRDDSKNSLYLQMNSLKTEDTAVYYCVRHGNFGNSYVSWFAYWGQGTLVTVSSGGGGSDKTHTCPPCPAPELLGPSVFLFPPKPKDTLMISRTPEVTCVVVDVSHEDPEVKFNWYVDGVEVHNAKTKPREEQYNSTYRVVSVLTVLHQDWLNGKEYKCKVSNKALGAPIEKTISKAKGQPREPQVYTLPPSREEMTKNQVSLWCLVKGFYPSDIAVEWESNGQPENNYKTTPPVLDSDGSFFLYSKLTVDKSRWQQGNVFSCSVMHEALHNHYTQKSLSLSPGKGGGGSGGGGSGGGGSGGGGSQVQLVQSGAEVKKPGASVKVSCKASGYTFAGFEMHWVRQAPGQGLEWMGAIDPKTGGTDYNQKFKDRVTMTRDTSISTAYMELSRLRSDDTAVYYCARDLGYFDVWGQGTLVTVSS
chain 2: QVQLQQPGAELVKPGASVKMSCKASGYTFTSYNMHWVKQTPGRGLEWIGAIYPGNGDTSYNQKFKGKATLTADKSSSTAYMQLSSLTSEDSAVYYCARSTYYGGDWYFNVWGAGTTVTVSAASTKGPSVFPLAPSSKSTSGGTAALGCLVKDYFPEPVTVSWNSGALTSGVHTFPAVLQSSGLYSLSSVVTVPSSSLGTQTYICNVNHKPSNTKVDKKVEPKSCGGGGSGGGGSGGGGSGGGGSQAVVTQEPSLTVSPGGTVTLTCRSSTGAVTTSNYANWVQQKPGQAPRGLIGGTNKRAPWTPARFSGSLLGGKAALTITGAQAEDEADYYCALWYSNLWVFGGGTKLTVLGGGGSDKTHTCPPCPAPELLGPSVFLFPPKPKDTLMISRTPEVTCVVVDVSHEDPEVKFNWYVDGVEVHNAKTKPREEQYNSTYRVVSVLTVLHQDWLNGKEYKCKVSNKALGAPIEKTISKAKGQPREPQVYTLPPSREEMTKNQVSLSCAVKGFYPSDIAVEWESNGQPENNYKTTPPVLDSDGSFFLVSKLTVDKSRWQQGNVFSCSVMHEALHNHYTQKSLSLSPGKGGGGSGGGGSGGGGSGGGGSDIQMTQSPSSLSASVGDRVTITCRASQDIRSNLNWYQQKPGGAVKLLIYYTSRLHSGVPSRFSGSGSGTDYTLTISSLQPEDFATYFCQQSEKLPRTFGGGTKVEIR
chain 3: DIQLTQSPASLAVSLGQRATISCKASQSVDYDGDSYLNWYQQIPGQPPKLLIYDASNLVSGIPPRFSGSGSGTDFTLNIHPVEKVDAATYHCQQSTEDPWTFGGGTKLEIKSSASTKGPSVFPLAPSSKSTSGGTAALGCLVKDYFPEPVTVSWNSGALTSGVHTFPAVLQSSGLYSLSSVVTVPSSSLGTQTYICNVNHKPSNTKVDKKVEPKSC
chain 4: QIVLSQSPAILSASPGEKVTMTCRASSSVSYIHWFQQKPGSSPKPWIYATSNLASGVPVRFSGSGSGTSYSLTISRVEAEDAATYYCQQWTSNPPTFGGGTKLEIKRTVAAPSVFIFPPSDEQLKSGTASVVCLLNNFYPREAKVQWKVDNALQSGNSQESVTEQDSKDSTYSLSSTLTLSKADYEKHKVYACEVTHQGLSSPVTKSFNRGEC
notes: CD19/CD20/CD3/CD137
B3: Ly2944 (multi-specific antibody)
chain 1: B2 chain 1
chain 2: B2 chain 2 with H572R, Y573F
chain 3: B2 chain 3
chain 4: B2 chain 4
notes: CD19/CD20/CD3/CD137
B4: Ly2453 (multi-specific antibody)
chain 1: not shown
chain 2: QVQLVQSGAEVKKPGASVKVSCKASGYTFTDFWMSWVRQAPGQGLEWMGQIYPNTGTTHSNEKFKGRVTMTRDTSTSTVYMELSSLRSEDTAVYYCARSYHISTTPNWFAYWGQGTLVTVSSASTKGPSVFPLAPSSKSTSGGTAALGCLVKDYFPEPVTVSWNSGALTSGVHTFPAVLQSSGLYSLSSVVTVPSSSLGTQTYICNVNHKPSNTKVDKKVEPKSCGGGGSGGGGSGGGGSGGGGSDIQMTQSPSSVSASVGDRVTITCRASQGIYSWLAWYQQKPGKAPNLLIYTASTLQSGVPSRFSGSGSGTDFTLTISSLQPEDFATYYCQQANIFPLTFGGGTKVEIKGGGGSDKTHTCPPCPAPEAAGPSVFLFPPKPKDTLMISRTPEVTCVVVDVSHEDPEVKFNWYVDGVEVHNAKTKPREEQYNSTYRVVSVLTVLHQDWLNGKEYKCKVSNKALPAPIEKTISKAKGQPREPQVYTLPPSREEMTKNQVSLSCAVKGFYPSDIAVEWESNGQPENNYKTTPPVLDSDGSFFLVSKLTVDKSRWQQGNVFSCSVMHEALHNRFTQKSLSLSPG
chain 3: DIQMTQSPSSLSASVGDRVTITCKASQNVYKKLEWYQQKPGKVPKVLIYHTNILQTGVPSRFSGSGSGTDYTLTISSLQPEDVATYYCYQWNSGPTFGGGTKVEIKRTVAAPSVFIFPPSDEQLKSGTASVVCLLNNFYPREAKVQWKVDNALQSGNSQESVTEQDSKDSTYSLSSTLTLSKADYEKHKVYACEVTHQGLSSPVTKSFNRGEC
notes: PD-L1/CD40
B5: Ly2454 (multi-specific antibody, human IgG1, kappa)
chain 1: not shown
chain 2: QVQLVQSGAEVKKPGASVKVSCKASGYTFTDFWMSWVRQAPGQGLEWMGQIYPNTGTTHSNEKFKGRVTMTRDTSTSTVYMELSSLRSEDTAVYYCARSYHISTTPNWFAYWGQGTLVTVSSASTKGPSVFPLAPSSKSTSGGTAALGCLVKDYFPEPVTVSWNSGALTSGVHTFPAVLQSSGLYSLSSVVTVPSSSLGTQTYICNVNHKPSNTKVDKKVEPKSCDKTHTCPPCPAPEAAGPSVFLFPPKPKDTLMISRTPEVTCVVVDVSHEDPEVKFNWYVDGVEVHNAKTKPREEQYNSTYRVVSVLTVLHQDWLNGKEYKCKVSNKALPAPIEKTISKAKGQPREPQVYTLPPSREEMTKNQVSLSCAVKGFYPSDIAVEWESNGQPENNYKTTPPVLDSDGSFFLVSKLTVDKSRWQQGNVFSCSVMHEALHNRFTQKSLSLSPGGGGGSGGGGSGGGGSGGGGSDIQMTQSPSSVSASVGDRVTITCRASQGIYSWLAWYQQKPGKAPNLLIYTASTLQSGVPSRFSGSGSGTDFTLTISSLQPEDFATYYCQQANIFPLTFGGGTKVEIK
chain 3: B4 chain 3
notes: PD-L1/CD40

Experiments:
CD137 = molecular target: T2, CD137 (human, UniProt Q07011 24-186); experiment: FCM or ELISA, graded
T2 construct: Whole on GS-H2-huCD137 reporter cells in the reporter assays; also called 4-1BB

CD19 = molecular target: T1, CD19; experiment: CHO cells overexpressing CD19, graded
CD40 = molecular target: T3, CD40 (human, UniProt P25942 21-193); experiment: FCM or ELISA, graded
T3 construct: Whole on GS-H2-huCD40 reporter cells in the reporter assays
T3 sequence (P25942 21-193 limits assumed): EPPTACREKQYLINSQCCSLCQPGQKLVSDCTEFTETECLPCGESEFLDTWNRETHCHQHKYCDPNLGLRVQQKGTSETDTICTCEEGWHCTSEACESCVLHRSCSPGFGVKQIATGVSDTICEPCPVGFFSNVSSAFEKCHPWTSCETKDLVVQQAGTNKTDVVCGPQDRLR

Binder	binding result (CD137)	binding result (CD19)	binding result (CD40)
B1	binds	binds	
B2	binds	binds	
B3	binds	binds	
B4			binds
B5			binds
